Test [1] has as its target T1, human CD19 (human, UniProt P15391 20-556).
T1 sequence (looked up): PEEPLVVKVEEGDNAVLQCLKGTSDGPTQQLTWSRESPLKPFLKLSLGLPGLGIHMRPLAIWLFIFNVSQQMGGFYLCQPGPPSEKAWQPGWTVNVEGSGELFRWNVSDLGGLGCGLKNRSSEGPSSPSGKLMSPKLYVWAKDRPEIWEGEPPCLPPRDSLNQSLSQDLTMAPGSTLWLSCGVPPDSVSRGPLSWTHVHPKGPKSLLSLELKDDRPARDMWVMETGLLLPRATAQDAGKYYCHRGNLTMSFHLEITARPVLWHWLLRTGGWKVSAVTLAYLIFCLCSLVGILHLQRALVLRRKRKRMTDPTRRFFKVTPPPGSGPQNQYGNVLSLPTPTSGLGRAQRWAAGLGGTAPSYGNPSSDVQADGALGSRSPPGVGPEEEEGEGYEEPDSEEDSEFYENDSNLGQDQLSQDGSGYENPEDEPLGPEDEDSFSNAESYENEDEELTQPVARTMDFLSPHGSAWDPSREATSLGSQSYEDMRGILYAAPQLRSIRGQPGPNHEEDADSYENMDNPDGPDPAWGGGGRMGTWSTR
The experiment in a line: cell-based or functional assay.

The target in test [2] is T1, human CD19. Put plainly: flow cytometry on Ramos cells.
The target of the next test is T2, human CD3 (human, UniProt P07766 23-207).
T2 construct: whole, on cells; On cells CD3 stands as the full CD3/TCR complex; also called CD3 on Jurkat cells
The experiment in a line: flow cytometry on Jurkat cells.

Another test has as its target T3, cynomolgus CD19 (cynomolgus monkey, UniProt A0A2K5W8L9 20-557).
T3 construct: whole, on cells; also called monkey CD19; WBP701.CHO-K1.cpro1.FL.C9 cells
T3 sequence: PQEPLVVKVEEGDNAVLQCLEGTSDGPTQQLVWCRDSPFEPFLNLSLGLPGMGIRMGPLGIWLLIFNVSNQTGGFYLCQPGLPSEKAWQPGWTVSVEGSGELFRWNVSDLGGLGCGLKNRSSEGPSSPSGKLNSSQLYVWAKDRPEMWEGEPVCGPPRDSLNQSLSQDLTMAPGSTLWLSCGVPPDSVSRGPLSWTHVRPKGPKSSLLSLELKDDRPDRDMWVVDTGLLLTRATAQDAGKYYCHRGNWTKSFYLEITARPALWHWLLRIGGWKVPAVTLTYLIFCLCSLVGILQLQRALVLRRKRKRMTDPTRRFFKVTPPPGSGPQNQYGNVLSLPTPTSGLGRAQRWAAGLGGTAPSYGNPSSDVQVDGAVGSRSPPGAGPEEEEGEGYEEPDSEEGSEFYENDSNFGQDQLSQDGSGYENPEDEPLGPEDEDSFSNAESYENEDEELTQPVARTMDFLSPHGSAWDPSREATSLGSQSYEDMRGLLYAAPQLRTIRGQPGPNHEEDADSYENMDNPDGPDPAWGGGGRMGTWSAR
Put plainly: flow cytometry on CHO-K1 cells expressing cynomolgus CD19 (WBP701.CHO-K1.cpro1.FL.C9). The method, then: Binding of the CD3×CD19 bispecific antibody to cynomoglus CD19 target protein expressed on CHOK1 cells was determined by flow cytometry analysis. In brief, cynomoglus CD19 over-expressed stable cell line (WBP701.CHOK1.cPro1.C9, WuXi Biologics) were harvested with trypsin and diluted to 1×10⁶ cells/ml in 1% BSA/1×PBS. 1×10⁵ cells/well (100 ul) were added to each well of a 96-well U-plate (Corning, #3799) and centrifuged at 1500 rpm (Eppendorf, #5810R) for 5 minutes before removing the supernatant. Antibodies serially diluted in 1% BSA/1×PBS were added at 100 µl/well to the pelleted cells and incubated at 4° C. for 1 hour. A non-related hIgG4 antibody was used as an isotype control. […] Pelleted cells were resuspended in 100 ul/well Fluorescence-labeled anti-human IgG Fc antibody (Jackson, #109-115-098) 1:150 diluted in 1% BSA/1×PBS for 30 minutes at 4° C. in the dark. […] After the final wash, cells were resuspended in 80 ul 1% BSA/1×PBS and fluorescence values were measured with a FACS Canto II cytometer (BD Biosciences). The amount of cell surface bound anti-CD19&CD3 bispecific antibody was assessed by measuring the mean fluorescence (MFI). The FACS raw data were analyzed by FlowJo software, wells containing no antibody or secondary antibody only were used to establish background fluorescence. […]

The next test deals with FcγRI (UniProt P12314 16-288, limits assumed). Put plainly: SPR (Biacore), receptor captured on anti-his chip, antibody injected, 1:1 Langmuir fit. The method, then:
(§1) Antibody binding affinity to FcγRs was detected using Biacore T200 (or Biacore 8K). Each receptor was captured on an anti-his antibody immobilized CMS sensor chip (GE). Antibodies at different concentrations were injected over the sensor chip at a flow rate of 30 uL/min for an association phase of 60 s, followed by 60 s dissociation. The chip was then regenerated by 10 mM glycine (pH 1.5) after each binding cycle.
(§2) The sensorgrams of blank surface and buffer channel were subtracted from the test sensorgrams. The experimental data was fitted by 1:1 model using Langmiur analysis (for FcγRI) or steady state model (for other receptors). A molecular weight of 150 KDa was used to calculate the molar concentration of antibodies.

For the next test, the target named is T4, FcγRIIb (UniProt P31994 46-217, limits assumed).
T4 sequence (looked up): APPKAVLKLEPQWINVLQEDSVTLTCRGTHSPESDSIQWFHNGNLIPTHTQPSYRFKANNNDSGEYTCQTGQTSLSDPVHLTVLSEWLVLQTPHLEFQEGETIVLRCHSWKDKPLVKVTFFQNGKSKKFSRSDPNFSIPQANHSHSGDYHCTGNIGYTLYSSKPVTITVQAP
The experiment in a line: SPR (Biacore), receptor captured on anti-his chip, antibody injected, steady state fit. The method, then: as §1, §2

The next test has as its target FcγRIIIa (V176) (UniProt P08637 17-208). The test is described as above. The method, then: as §1, §2
The next test concerns the target T5, FcγRIIa (R167) (UniProt P12318 36-218, limits assumed).
T5 sequence (looked up): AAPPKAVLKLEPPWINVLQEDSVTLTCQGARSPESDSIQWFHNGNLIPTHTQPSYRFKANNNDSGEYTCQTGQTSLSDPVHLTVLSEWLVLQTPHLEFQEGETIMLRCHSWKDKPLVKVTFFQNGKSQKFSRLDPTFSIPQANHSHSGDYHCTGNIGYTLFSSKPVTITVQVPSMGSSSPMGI
Described as above. Here is the method:
as §1, §2

Chain of FcγRI (P12314 16-288 limits assumed): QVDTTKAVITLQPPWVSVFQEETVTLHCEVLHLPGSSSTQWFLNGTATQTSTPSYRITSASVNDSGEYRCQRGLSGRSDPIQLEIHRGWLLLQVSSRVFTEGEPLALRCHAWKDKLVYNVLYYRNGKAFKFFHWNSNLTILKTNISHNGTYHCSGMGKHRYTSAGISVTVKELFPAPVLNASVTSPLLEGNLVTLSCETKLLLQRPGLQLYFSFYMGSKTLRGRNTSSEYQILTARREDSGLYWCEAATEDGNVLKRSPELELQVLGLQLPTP
Chain of FcγRIIIa (V176) (P08637 17-208 F176V limits assumed): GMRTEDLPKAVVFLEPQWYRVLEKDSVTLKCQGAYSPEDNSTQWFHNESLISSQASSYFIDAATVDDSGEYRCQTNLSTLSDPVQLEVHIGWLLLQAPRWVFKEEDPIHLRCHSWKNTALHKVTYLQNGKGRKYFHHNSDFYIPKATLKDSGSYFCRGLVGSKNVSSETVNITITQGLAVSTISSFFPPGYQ
T2 sequence (P07766 23-207): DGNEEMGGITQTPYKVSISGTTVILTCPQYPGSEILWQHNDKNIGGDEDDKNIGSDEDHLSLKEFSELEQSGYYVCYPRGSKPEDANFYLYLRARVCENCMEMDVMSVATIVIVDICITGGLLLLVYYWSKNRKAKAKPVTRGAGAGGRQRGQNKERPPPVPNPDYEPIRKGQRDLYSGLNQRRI

B1: W3438-T3U4.E17-1.uIgG4.SP (bispecific antibody)
light 1: DIVMTQSPDSLAVSLGERATINCKSSQSLLNSRTRKNYLAWYQQKPGQPPKLLIYWASTRQSGVPDRFSGSGSGTDFTLTISSLQAEDVAVYYCTQSHTLRTFGGGTKVEIKPDIQNPDPAVYQLRDSKSSDKSVCLFTDFDSQTQVSQSKDSDVYITDKCVLDMRSMDFKSNSAVAWSQKSDFACANAFQNSIIPEDTFFPSPESS
heavy 1: QVQLVQSGAEVKKPGSSVKVSCKASGFAFTDYYIHWVRQAPGQGLEWMGWISPGNVNTKYNENFKGRVTITADKSTSTAYMELSSLRSEDTAVYYCARDGYSLYYFDYWGQGTLVTVLEDLKNVFPPEVAVFEPSEAEISHTQKATLVCLATGFYPDHVELSWWVNGKEVHSGVCTDPQPLKEQPALQDSRYALSSRLRVSATFWQNPRNHFRCQVQFYGLSENDEWTQDRAKPVTQIVSAEAWGRYGPPCPPCPAPEFLGGPSVFLFPPKPKDTLMISRTPEVTCVVVDVSQEDPEVQFNWYVDGVEVHNAKTKPREEQFNSTYRVVSVLTVLHQDWLNGKEYKCKVSNKGLPSSIEKTISKAKGQPREPQVYTLPPCQEEMTKNQVSLWCLVKGFYPSDIAVEWESNGQPENNYKTTPPVLDSDGSFFLYSRLTVDKSRWQEGNVFSCSVMHEALHNHYTQKSLSLSLGK
light 2: DIQLTQSPSFLSASVGDRVTITCSASSTVNYMHWYQQKPGKAPKLLIYSTSNLASGVPSRFSGSGSGTEFTLTISSLQPEDFATYYCHQWSSYPYTFGQGTKLEIKRTVAAPSVFIFPPSDEQLKSGTASVVCLLNNFYPREAKVQWKVDNALQSGNSQESVTEQDSKDSTYSLSSTLTLSKADYEKHKVYACEVTHQGLSSPVTKSFNRGEC
heavy 2: QMQLVQSGPEVKKPGTSVKVSCKASGYAFTSYNMYWVRQARGQRLEWIGYIDPYNGDTTYNQKFKGRVTITRDMSTSTAYMELSSLRSEDTAVYYCLTTAYAMDYWGQGTLVTVSSASTKGPSVFPLAPCSRSTSESTAALGCLVKDYFPEPVTVSWNSGALTSGVHTFPAVLQSSGLYSLSSVVTVPSSSLGTKTYTCNVDHKPSNTKVDKRVESKYGPPCPPCPAPEFLGGPSVFLFPPKPKDTLMISRTPEVTCVVVDVSQEDPEVQFNWYVDGVEVHNAKTKPREEQFNSTYRVVSVLTVLHQDWLNGKEYKCKVSNKGLPSSIEKTISKAKGQPREPQVCTLPPSQEEMTKNQVSLSCAVKGFYPSDIAVEWESNGQPENNYKTTPPVLDSDGSFFLVSRLTVDKSRWQEGNVFSCSVMHEALHNHYTQKSLSLSLGK
notes: Bispecific, bivalent: one anti-CD3 arm with TCR constant domains and one native anti-CD19 Fab arm, IgG4 S228P Fc with knobs-into-holes; also called WBP3438; CD3×CD19 bispecific antibody; copies: 1 + 1 + 1 + 1
As to B1, in the test with human CD19 [1], the “cytotoxic activity on Raji cells with CD8+ T cells, EC50” value is 0.015 µM. Further, the EC50 with human CD19 [2] is 0.0156 µM; with human CD3, 0.047 µM; with cynomolgus CD19, 0.026 µM. The Kd with FcγRI amounted to 0.00979 µM; with FcγRIIb it was 24.1 µM; with FcγRIIIa (V176), 14 µM; in the test with FcγRIIa (R167), 15.8 µM.

The values are drawn from US20200283523A1 (WUXI BIOLOGICS IRELAND, published 2020).
